# How the values were obtained:
# [1] = biological target: BG505 SOSIP.664 N88Q (HIV-1 strain BG505); assay: SPR
# [2] = biological target: BG505 SOSIP.664 trimer (HIV-1 strain BG505); assay: SPR
# [3] = biological target: single-chain BG505 SOSIP.664 trimer (HIV-1 strain BG505); assay: SPR
# [4] = biological target: BG505 SOSIP.664 trimer (HIV-1 strain BG505); assay: negative-stain electron microscopy
substance,measurement,setting,value
Fab VRC34.01,Kd,[1],19.9 nM
same,Kd,[2],0.3 nM
same,Kd,[3],272 nM
same,stoichiometry N,[4],3

# Reference: paper PMC4917739
